Measurements reported in PMC4549274.
Each block holds one substance with its values, some of them ahead of it.

Columns and labels:
Assay in all cases: native MS; nano-ESI native MS, 15 μM monomer, buffer-exchanged into 100 mM ammonium acetate pH 8.5, positive ion mode
[1] = biological target: CrRbcX-IIa(33–189) (Chlamydomonas reinhardtii)
[2] = biological target: CrRbcX-IIa(34–156) (Chlamydomonas reinhardtii)
[3] = biological target: CrRbcX-IIa(34–189) (Chlamydomonas reinhardtii)

stoichiometry N [1]: 2
Substance: CrRbcX-IIa(33–189) (natural protein)

stoichiometry N [2]: 4
Substance: CrRbcX-IIa(34–156) (domain or fragment)

stoichiometry N [3]: 4
Substance: CrRbcX-IIa(34–189) (domain or fragment)
